# Residue numbers refer to the chain shown, from its start.
# B1: VG9B98 (antibody, human IgG1, kappa, V domains shown)
# VH: EVQLVQSGGDLVKSGGSLRLSCAASGFTFSSYSMYWVRQAPGKGLEWVSSIGSSSTYIFYADSVKGRFTISRDNAMTSLYLQMNRLGAEDSAVYYCARDGELGPFEYWGQGTLVTVSS
# VL: EIVLTQSPGTLSLSPGERATLSCRASQSVSTSYLAWFQQKPGQAPRLLIFGTSSRATGIPDRFSGSGSGTDFTLTISRLEPEDFAVYHCLQYGRSPLTFGGGTKVDIKR
# B2: VG9B157 (antibody, human IgG1, lambda, V domains shown)
# VH: EVQLLESGGGLVKPGASLKLSCAASGFTFSNHGMSWVRQTSDKRLEWVASITRGGDTTYYPDNVKGRFTISRENAKNTLYLQMSSLKSDDTALYYCTRGPLTVGYAMDYWGQGTTVTVSS
# VL: SSELTQDPAVSVALGQTVRITCQGDSLRSYYATWYQQKPGQAPILVIYGENNRPSGIPDRFSGSRSGNTASLTITGAQAEDEADYYCNSRDTGDHHLVFGGGTKLTVLG
# B3: VG9B384 (antibody, human IgG1, lambda, V domains shown)
# VH: QVQLQESGPALVKPTQTLTLTCTFSGFSLSSSGMCVSWIRQPPGKALEWLTLIDWFDDKYYSTSLKTRLTISKDTSKNQVVLTMTNMDPVDTATYYCARIRGTGAYYYGLDVWGQGTMVTVSS
# VL: SYELMQPPSVSVSPGQTASITCSGNELGDKYASWYQQQPGQSPVLVIYQDNKRPSGIPERFSGSNSGNTATLTISGTQAMDEADYYCQAWDSSKVVFGGGTKLTVLG
# B4: VG9B195 (antibody, human IgG1, lambda, V domains shown)
# VH: EVQLVESGGGLVKPGGSLRLSCAASGFTFSPYTMNWVRQAPGKGLEWVSSISSSSSYMYYADSVKGRFTISRDNAKNSLYLQMNSLRAEDTAVYYCARDGDLVGPTYYFDYWGQGTLVTVSS
# VL: B3 VL with N25D, E26K, S33C, Q38K, D50H, N68K, S93T, K94T
# B5: VG9B68 (antibody, human IgG1, kappa, V domains shown)
# VH: EVQLVESGAEVKKPGSSVKVSCKASGGTFSTYAISWVRQAPGQGLEWMGGIIPIFGTATYAQRFQDRVMITADKSTTTAYMELSSLRSEDTAVFYCARGVGWGSDYYYGLDVWGQGTMVTVSS
# VL: EIVMTQSPLSSPVTLGQPASISCRSSQSLVHSDGNTYLSWLQQRPGQSPRLLIYKISNRFSGVPDRFSGSGAGTDFTLRITRVEPEDVGVYYCIQATHHPLTFGGGTRLEIKR
# B6: VG9B430 (antibody, human IgG1, kappa, V domains shown)
# VH: EVQLLESGGGLVKPGGSLRLSCSASGFTFSSYDMNWVRQAPGKGLEWVSSISSSSSYIYYADSVKGRFTISRDNAKNSLYLQMNSLRAEDTAVYHCARDVGVTTDYYYYGMDVWGQGTMVTVSS
# VL: EIVLTQSPGTLSLSPGDRATLSCRASQSVASSYLAWYQQKPGQSPRLLIYGASSRATGIPDRFSGSGSGTDFTLTISRLEPEDFAVYYCQQYGSSPPYTFGQGTKLEIKR
# B7: VG9B73 (antibody, human IgG1, kappa, V domains shown)
# VH: EVQLVQSGGGLVKPGGSLRLSCAASGFTFSNYDMNWVRQAPGKGLEWVSSISSSSSYIYYADSVKGRFTISRDNARNSLFLQMSSLRAEDTAVYYCAREIGVTGTTYYQDYGMDVWGQGTTVTVSS
# VL: B6 VL with L4M, D17E, V29F, A30S, S32N, S44A, V86L, Y98F, L106V
# Key:
# [1] = biological target: Vg5/Vd2 T cell receptor on SKW3 cells (UniProt A0JD36); assay: flow cytometry, dose-response binding at 37 C on SKW3 cells expressing Vg5/Vd2
# [2] = biological target: Vg9/Vd1 T cell receptor on SKW3 cells (UniProt Q99603); assay: flow cytometry, dose-response binding at 37 C on SKW3 cells expressing Vg9/Vd1
# [3] = biological target: Vg9/Vd2 T cell receptor on SKW3_4 cells (UniProt Q99603); assay: flow cytometry, dose-response binding at 37 C on SKW3_4 cells expressing Vg9/Vd2
# [4] = biological target: Vg5/Vd2 T cell receptor on SKW3 cells (UniProt A0JD36); assay: flow cytometry, DRC binding 37 C, SKW3 cells expressing Vg5/Vd2
# [5] = biological target: Vg9/Vd1 T cell receptor on SKW3 cells (UniProt Q99603); assay: flow cytometry, DRC binding 37 C, SKW3 cells expressing Vg9/Vd1
# [6] = biological target: Vg9/Vd2 T cell receptor on SKW3_4 cells (UniProt Q99603); assay: flow cytometry, DRC binding 37 C, SKW3_4 cells expressing Vg9/Vd2
# [7] = biological target: Vg5/Vd2 T cell receptor on SKW3 cells (AG000003285; CLI000001325 (C3820A)) (UniProt A0JD36); assay: flow cytometry, DRC binding at 37°C on SKW3 cells expressing Vg5/Vd2
# [8] = biological target: Vg9/Vd1 T cell receptor on SKW3 cells (AG000003287; CLI000001326 (C3821A)) (UniProt Q99603); assay: flow cytometry, DRC binding at 37°C on SKW3 cells expressing Vg9/Vd1
# [9] = biological target: Vg9/Vd2 T cell receptor on SKW3_4 cells (AG000003284; CLI000001324 (C3819A)) (UniProt Q99603); assay: flow cytometry, DRC binding at 37°C on SKW3_4 cells expressing Vg9/Vd2
# Sequence of Vg9/Vd2 T cell receptor on SKW3_4 cells (AG000003284; CLI000001324 (C3819A)) (Q99603 21-122, chain 1 of 2): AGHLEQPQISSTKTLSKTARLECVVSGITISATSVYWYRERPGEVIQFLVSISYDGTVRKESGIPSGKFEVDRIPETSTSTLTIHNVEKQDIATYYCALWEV
# Sequence of Vg9/Vd2 T cell receptor on SKW3_4 cells (AG000003284; CLI000001324 (C3819A)) (A0JD36 20-115, chain 2 of 2, further chain): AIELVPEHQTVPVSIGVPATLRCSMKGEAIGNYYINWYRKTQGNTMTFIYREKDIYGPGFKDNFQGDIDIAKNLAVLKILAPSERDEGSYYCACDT
# Sequence of Vg9/Vd1 T cell receptor on SKW3 cells (Q99603 21-122): as the sequence (Q99603 21-122, chain 1 of 2) above
# Sequence of Vg9/Vd2 T cell receptor on SKW3_4 cells (Q99603 21-122, chain 1 of 2): as above
# Sequence of Vg9/Vd2 T cell receptor on SKW3_4 cells (A0JD36 20-115, chain 2 of 2, further chain): as the sequence (A0JD36 20-115, chain 2 of 2, further chain) above
# Sequence of Vg5/Vd2 T cell receptor on SKW3 cells (A0JD36 20-115): as the sequence (A0JD36 20-115, chain 2 of 2, further chain) above
# Sequence of Vg9/Vd1 T cell receptor on SKW3 cells (AG000003287; CLI000001326 (C3821A)) (Q99603 21-122, stated change not applied): as the sequence (Q99603 21-122, chain 1 of 2) above
# Sequence of Vg5/Vd2 T cell receptor on SKW3 cells (AG000003285; CLI000001325 (C3820A)) (A0JD36 20-115, stated change not applied): as the sequence (A0JD36 20-115, chain 2 of 2, further chain) above
Binder,Max. Activity (fold over background) [1],Max. Activity (fold over background) [2],Max. Activity (fold over background) [3],also measured
B1,2.47,344,154,
B2,,,,Max. Activity (fold over background) [4]: 11.7; Max. Activity (fold over background) [5]: 0.96; Max. Activity (fold over background) [6]: 11
B3,18.7,290,121,
B4,,,,Max. Activity (fold over background) [7]: 10.3; Max. Activity (fold over background) [8]: 300; Max. Activity (fold over background) [9]: 119
B5,,,,Max. Activity (fold over background) [4]: 207; Max. Activity (fold over background) [5]: 2.08; Max. Activity (fold over background) [6]: 124
B6,1.49,325,143,
B7,1.79,317,118,
